To fix the notation:
B1: PA2-Gd(DO3A), palmitoyl-MAAAEEEEK(DO3A:Gd)-NH2 (peptide)
peptide: MAAAEEEEK
modifications: not fully specified; palmitoyl on the N-terminus; K(DO3A:Gd); C-terminal amide (NH2)

The target in data set [1] is B1. The data set can be described thus: fluorescence polarisation. For orientation: Polarisation of emitted light reports the rotation of a fluorescent probe.
The target of data set [2] is T1, PA1-Gd(DO3A), palmitoyl-IAAAEEEEK(DO3A:Gd)-NH2 (not fully specified (residue 9); printed as palmitoyl-IAAAEEEEK(DO3A:Gd)-NH2; also: Gd complex of DO3A).
T1 peptide: Palmitoyl-IAAAEEEEK-NH2
The data set can be described thus: fluorescence polarisation.

Data set [3] deals with the molecule itself. The data set can be described thus: circular dichroism spectroscopy. (CD spectra are sensitive to the conformation of chiral molecules.)

*: point of attachment. Ru(bipy)3 = tris(bipyridine)ruthenium complex attached to the Lys ε-amine via an NHS ester; Palmitoyl = CCCCCCCCCCCCCCCC(=O)*

Regarding Palmitoyl-MAAAEEEEK(Ru(bipy)3)-NH2 (also: Ru(bipy)3 via NHS ester linker, Ru complex) [PA2-Ru(bipy)3, palmitoyl-MAAAEEEEK[Ru(bipy)3]-NH2], in data set [1], the binding result is on record as “binds”. As for Palmitoyl-IAAAEEEEK(Ru(bipy)3)-NH2 (also: Ru(bipy)3 via NHS ester linker, Ru complex) [PA1-Ru(bipy)3, palmitoyl-IAAAEEEEK[Ru(bipy)3]-NH2], in data set [2], the binding result is reported as “binds”. On to B1, for which, in data set [3], the binding result is reported as “binds”.

The record behind these values is paper PMC5877399 (Biomacromolecules, 2014).
